Experimental data from paper PMC4427307.

Target: human insulin (human)
Assay: BLI; Octet Red, 96-well microplates, 25°C; biotinylated human insulin (12.5-50 μg/ml) immobilised on Streptavidin Biosensors; rSjLD1 (3.5-56 μg/ml) or rSjLD2 (1.78-56 μg/ml) in solution; kinetic buffer (1mM phosphate, 15mM NaCl, 0.1mg/ml BSA, 0.002% Tween-20); association 1000 s, dissociation …; double reference subtraction (BSA negative control and sensor)

| Substance | Kd |
| --- | --- |
| recombinant L1 subdomain of Schistosoma japonicum insulin receptor 1 (SjLD1), expressed in Drosophila S2 cells (domain or fragment) | 64.4 nM |
| recombinant L1 subdomain of Schistosoma japonicum insulin receptor 2 (SjLD2), expressed in Drosophila S2 cells (domain or fragment) | 8.78 nM |
